The values below come from US10444224B2, “Method for RNA detection and quantification” (Cornell University, priority 2011, dated 2019).

Data set [1] deals with HEK293 cells. The data set can be described thus: Nonspecific fluorescence activation by cellular components. As to conditions: 10 μM, 30 min. The data set is classed as cell-based. How it is done: HEK293 cells were grown on PLL-coated glass-bottom dishes (MatTek) in DMEM plus 10% FBS to ˜80% confluency. Media was removed, cells were washed twice with microscopy media (20 mM HEPES pH 7.4, 119 mM NaCl, 5 mM KCl, 2 mM CaCl2, 2 mM MgCl2, and 30 mM glucose) and then incubated for 30 min with microscopy media plus vehicle (0.2% DMSO) or 10 μM N,N-Dimethyl-4′-nitro-4-stilbenamine, thiazole orange, malachite green, or DFHBI. Live fluorescence images were then taken with a CoolSnap HQ2 CCD camera through a 40× oil objective mounted on a Nikon TE2000 microscope and analyzed with the NIS-Elements software.

The subject of data set [2] is HEK293 cells. The data set can be described thus: Cytotoxicity assay after illumination (MTT). As to conditions: 10 μM fluorophore, 10 min illumination. The data set is classed as cell-based. Here is the method:
HEK293 cells were grown on PLL-coated glass-bottom dishes as indicated above. At ˜80% confluency, the media was removed and cells were incubated for 30 min with fresh media alone, media plus vehicle (0.2% DMSO) or media plus 10 μM DMHBI, DFHBI or MG. Cells were then illuminated for 10 min at 37° C. with a Nikon Intensilight C-HGFIE 130 W mercury lamp with FITC (DMHBI and DFHBI) or Cy5 (malachite green) filter sets (Chroma Technology) on an inverted epifluorescence microscope. Control cells were illuminated for 10 min under identical conditions but in the absence of any fluorophore. Cells were then washed several times with media to remove fluorophores and assayed for mitochondrial activity with MTT (3-[4,5-dimethylthiazol-2-yl]-2,5-diphenyltetrazolium bromide) based cell proliferation kit (Roche) and prepared according to manufacturers instructions. MTT absorbance readings were performed at 550 nm with 650 nm absorbance used for background subtraction. Values are reported as percent change in viability compared to control samples (illumination without fluorophore or without vehicle) and each condition was repeated in triplicate and averaged.

A short description of data set [3]: Truncation and mutagenesis of 24-2, DFHBI fluorescence. The data set is classed as biochemical. To be noted: with DFHBI. Here is the method:
Secondary structure prediction was performed using Mfold online software (Zuker, “Mfold Web Server for Nucleic Acid Folding and Hybridization Prediction,” Nucl. Acids Res. 31(13): 3406-3415 (2003), which is hereby incorporated by reference in its entirety). Mutated and truncated RNAs were created by ordering single stranded DNA templates (Integrated DNA Technologies) with the desired mutations or truncations and PCR amplifying these sequences to create double stranded DNA templates using primers which included a 5′ T7 promoter sequence. PCR products were then purified with PCR purification columns (Qiagen) and used as templates for in vitro T7 transcription reactions (Epicentre).

Data set [4] in a line: Spinach-based RNA sensor fluorescence in response to ADP. In kind it is biochemical.
Protocol: Dose-response curves for each sensor in response to the target metabolite were determined by measuring the increase in fluorescence as a function of increasing target concentration in the presence of a fixed concentration of RNA sensor (10-50 nM) and a fixed concentration of fluorophore (10 μM). Curves were determined using a nonlinear regression analysis in Prism software and matched by least squares fitting to a standard dose-response model for 1:1 complexation.
The optimal sensors were chosen based on their low fluorescence in the absence of metabolite and the relative increase in fluorescence upon binding to the metabolite.
Data set [5] in a line: Sensor activation rate, ADP sensor. The data set is classed as biochemical. To be noted: 1 mM ADP, 37° C. How it is done: A solution of RNA sensor (1 μM) and DFHBI (10 μM) was incubated with continuous stirring at 37° C. in a buffer containing 40 mM HEPES pH 7.4, 125 mM KCl and 1 mM MgCl2. The target metabolite (1 mM) was then rapidly added to the stirring solutions and fluorescence emission was recorded over a 15 min period under continuous illumination at 37° C. using the following instrumental parameters: excitation wavelength, 460 nm; emission wavelength, 500 nm; increment of data point collection, 0.05 s; slit widths, 10 nm. The fluorescence increase was then plotted against exposure time and normalized to the maximum intensity of each fluorophore.

The test system of data set [6] is endogenous ADP levels in living E. coli cells. The data set can be described thus: Live cell imaging of ADP dynamics with the ADP sensor. The data set is classed as cell-based. As to conditions: 200 μM DFHBI. Here is the method: BL21-A Star E. coli cells (Invitrogen) were transformed with 40 ng of plasmid DNA expressing the tRNA-sensor chimeras in pET28c under the control of a T7 promoter. Cells were plated, grown overnight and single colonies were picked for inoculation in Luria Broth containing kanamycin (LB-Kan). At OD600=0.4, 1 mM of IPTG was added to the culture and shaking was continued at 37° C. for more 2 hours. 100 uL of culture was then removed, spun down to pelleted the culture, and resuspended in 2 mL of pH 6.0 M9 minimal media. A 200 μl aliquot of resuspended culture was then plated on poly-L-lysine (PLL)-coated 24-well glass-bottom dishes (MatTek) and incubated for 45 minutes at 37° C. Adherent cells were washed twice and then incubated with 200 μM DFHBI in pH 6.0 M9 minimal media for 45 min at 37° C. Cells then were washed twice and incubated with M9 media containing 200 μM DFHBI and the appropriate carbon source (2 mg/ml glucose, 6.65 mg/ml potassium acetate, 4.05 mg/ml glycerol or 5.51 mg/ml succinate). Live fluorescence images were taken with a CoolSnap HQ2 CCD camera through a 60× oil objective mounted on a Nikon TE2000 microscope and analyzed with the NIS-Elements software. The filter set used was a sputter coated filter cube with excitation filter 470/40, dichroic mirror 495 (long pass) and emission filter 525/50 (Chroma Technology).
Cells transformed with ADP sensor were grown overnight in LB-Kan. Cultures were then diluted to OD600=0.1 in 200 mL LB-Kan and grown to OD600=0.4. Cells were then induced for 2 hours with 1 mM IPTG at 37° C. with constant shaking. The entire culture was split in two samples and then placed in a centrifuged for 5 min at 1,000×g. Pellets were then washed once and resuspended in […] of M9 media containing 200 μM DFHBI and either 2.00 mg/ml glucose or 6.68 mg/ml potassium acetate as the carbon source. […] Aliquots of culture were removed every 30 min, pelleted, lysed, and ADP levels were measured with an ADP Fluorometric Assay Kit (Abcam) according to manufacturer's instructions.

“And” between values parts separate entries of the source, which are not always exact repeats. Identical values can stand only once. “Also recorded” adds a separate entry of the source.

For `CC1=NC(=Cc2cc(F)c(O)c(F)c2)C(=O)N1C` [DFHBI, 4-(3,5-difluoro-4-hydroxybenzylidene)-1,2-dimethyl-imidazol-5-one], the “nonspecific fluorescence activation upon incubation with cells” value with HEK293 cells [1] was “does not exhibit nonspecific fluorescence activation”. Moreover, the “cytotoxicity / phototoxicity upon illumination” value with HEK293 cells [2] is given as “negligible phototoxicity”.

B1: 24-2-min: final truncated (minimized) 24-2 sequence (nucleic acid)
chain: GACGCGACCGAAAUGGUGAAGGACGGGUCCAGUGCUUCGGCACUGUUGAGUAGAGUGUGAGCUCCGUAACUGGUCGCGUC
modifications: listed as RNA, chemistry not given here
With B1, the “fluorescence relative to full-length 24-2” value in data set [3] is recorded as ~95%.

B2: ADP sensor: Spinach-based turn-on RNA sensor for ADP, transducer stem 3 (nucleic acid)
chain: GACGCGACUGAAUGAAAUGGUGAAGGACGGGUCCAGCACGAGGGGGAAACCCCGGACAAUCAGACACGGUGCUUGUUGAGUAGAGUGUGAGCUCCGUAACUAGUCGCGUC
modifications: listed as RNA, chemistry not given here
Broadly, the EC50 is the concentration at which the effect is half-maximal. On to B2, for which the “increase in fluorescence in the presence of ADP” value in data set [4] (10 μM DFHBI, 1 mM ADP, versus no ADP) is 20 fold and 18 fold. For the same molecule, the “molecular discrimination: activation by ATP, AMP, cAMP, NAD+” value in data set [4] (1 mM competing molecules) is “negligibly activated; also recorded: specific for ADP”. In addition, the EC50 in data set [4] (dose-response, 10 μM fluorophore, read-out: half-maximal fluorescence (EC50), ADP) is 270 µM. Further, in data set [5], the “time to increase in fluorescence after ADP addition” value is given as “less than 10 s”. Besides, in data set [6], the “sensor fluorescence after switch to succinate or glycerol” value was “did not substantially increase fluorescence”. The “increase in sensor fluorescence over baseline after switch from glucose to acetate media” value is listed as ~6 fold in data set [6] (by 3 hr) and 1.8 fold in data set [6] (within 30 min).
